In US9303249B2, “High concentration α-glucosidase compositions for the treatment of Pompe disease” (Amicus Therapeutics, Inc., priority 2012, dated 2016) one finds rhGAA activity uptake data, which are given here for one substance.

This series has as its system GAA KO mice. The series is described as follows: Tissue rhGAA activity after repeat SQ dosing between the shoulder blades (Example 13). The format is in vivo, mouse. Conditions: Lumizyme 20 mg/kg +/− 1-DNJ 30 mg/kg SQ, 4 doses (Mon and Thu), 3 days after last dose. As to the method:
12-week old male GAA KO mice in groups of 7 were used in the present study. Each group of mice was administered one of the following treatments:
(2) Lumizyme® alone (20 mg/kg) delivered subcutaneously (SQ); or
(3) Co-formulated Lumizyme® (20 mg/kg) and 1-DNJ (30 mg/kg) SQ.
Each of the treatments were administered to their respective treatment group for a period of 2 weeks. The treatments were administered on Monday and Thursday of each week. SQ injections were administered between the shoulder blades of each mouse receiving treatment. A total of 4 doses was administered to each study animal. Diphenhydramine was administered intraperitoneally (IP) before the 3rd and 4th doses.
Tissue samples were collected to determine rhGAA uptake 3 days following the last dose of the study (i.e., 3 days post dose 4). Tissue samples included heart, diaphragm, tongue, brain, spleen, liver, biceps, triceps, quadriceps, soleus, gastrocnemius, ventral skin and dorsal skin from the SQ injection site. Tissue samples were also collected to determine glycogen concentration 14 days following the last dose of the study (i.e., 14 days post dose 4).

“Lumizyme®: alglucosidase alfa, recombinant human acid α-glucosidase from Genzyme Corporation”: the rhGAA activity uptake reads like this: (Biceps) 56.0 nmol/mg/h; (Diaphragm) 4.2 nmol/mg/h; (Gastrocnemius) 2.0 nmol/mg/h; (Heart) 1.9 nmol/mg/h; (Quadriceps) 2.1 nmol/mg/h; (Skin) 75 nmol/mg/h. Further, the rhGAA activity uptake came out at 2.7 nmol/mg/h (Soleus), 2.7 nmol/mg/h (Tongue) and 88.0 nmol/mg/h (Triceps).
